Here are results for one substance from patent US20160031946A1.

In this test the target is OVA257-264 (SIINFEKL) presented by H-2Kb on dendritic cells (chicken; mouse). Description: cell-based or functional assay.

Take “OT-1 T cell receptor (TCR of OT-1 TCR transgenic mice, specific for the OVA257-264 epitope)”: the proliferating CD8+ T cells (CFSE dilution), BMDCs loaded with ZEBRA-OVA257-264 after maturation came out at 70%; the proliferating CD8+ T cells (CFSE dilution), BMDCs loaded with ZEBRA-OVA257-264 before maturation turned out to be 69%; the proliferating CD8+ T cells (CFSE dilution, 5 days), DCs loaded with ZEBRA-OVA257-264 turned out to be 81%; the proliferating CD8+ T cells (CFSE dilution, 5 days), DCs pulsed with 10 uM Ova peptide (positive control) was determined as 93%.
